Assay results from article PMC9030890.

Target: recombinant stabilised complete spike protein (SARS-CoV-2), pre-fusion (SARS-CoV-2) (UniProt P0DTC2)
Assay: affinity purification with mass spectrometry

human serum albumin (from UniProt P02768 25-609) (natural protein)
mean MALDI-ToF peak intensity of HSA eluted from the beads: 1920 AU
